In test [1] the target is T1, SNP variant V233M of human IL-10Rα extracellular domain fused to the Fc portion of human IgG1 (human).
T1 construct: The entry already holds the change and includes the signal peptide
In words: ELISA with SNP variant Fc fusion. (In general: ELISA stands for enzyme-linked immunosorbent assay.)
Target sequence in this assay (chain, as listed by the source V233M V233M limits assumed): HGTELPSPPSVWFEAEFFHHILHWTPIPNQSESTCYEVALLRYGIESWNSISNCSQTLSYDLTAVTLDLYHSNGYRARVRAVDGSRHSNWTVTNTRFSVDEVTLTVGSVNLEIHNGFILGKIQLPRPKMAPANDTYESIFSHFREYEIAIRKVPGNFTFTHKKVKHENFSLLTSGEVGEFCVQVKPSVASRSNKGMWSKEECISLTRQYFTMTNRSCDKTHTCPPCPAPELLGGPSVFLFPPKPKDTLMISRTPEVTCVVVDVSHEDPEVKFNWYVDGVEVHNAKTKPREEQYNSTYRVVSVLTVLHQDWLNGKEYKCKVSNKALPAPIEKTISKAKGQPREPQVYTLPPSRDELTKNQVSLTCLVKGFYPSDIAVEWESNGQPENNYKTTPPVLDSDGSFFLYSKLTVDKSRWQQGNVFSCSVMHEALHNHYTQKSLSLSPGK

Test [2] deals with T2, SNP variant V113I of human IL-10Rα extracellular domain fused to the Fc portion of human IgG1 (human).
T2 construct: The entry already holds the change and includes the signal peptide; also called V1131
In words: ELISA with SNP variant Fc fusion.
Target sequence in this assay (chain, as listed by the source V113I V113I limits assumed): as the sequence (chain, as listed by the source V233M V233M limits assumed) above, with V92I, M212V counted along it

The target in test [3] is T3, SNP variant R212E of human IL-10Rα extracellular domain fused to the Fc portion of human IgG1 (human).
T3 construct: The entry already holds the change and includes the signal peptide
Nature of the test: ELISA with SNP variant Fc fusion.

The target of test [4] is T4, SNP variant L61V of human IL-10Rα extracellular domain fused to the Fc portion of human IgG1 (human).
T4 construct: The entry already holds the change and includes the signal peptide; also called L61I; L611
In words: ELISA with SNP variant Fc fusion.

In test [5] the target is T5, SNP variant S159G of human IL-10Rα extracellular domain fused to the Fc portion of human IgG1 (human).
T5 construct: The entry already holds the change and includes the signal peptide
In words: ELISA with SNP variant Fc fusion.
Target sequence in this assay (chain, as listed by the source S159G S159G limits assumed): as the sequence (chain, as listed by the source V233M V233M limits assumed) above, with S138G, M212V counted along it

Test [6] concerns the target T6, Ac-TVTNTRFSVD-NH2 (human).
T6 peptide: Ac-TVTNTRFSVD-NH2
In words: dot blot on PVDF or nitrocellulose membrane. As to the method: (§1) Methods to detect antibody binding to peptides derived from the human IL-10Rα sequence: Multiple methods were employed to detect binding of anti-human IL-10Rα antibodies to peptides derived from the extracellular domain of human IL-10Rα that have been reported by Reineke, et al. (Reineke, et al., Protein Sci 7:951 (1998)) to be included in the IL-10 binding site of the receptor. The following amide synthesized peptides were tested: Ac-[…]-NH2, Ac-[…]-NH2, Ac-[…]-NH2, Ac-[…]-NH2, Ac-[…]-NH2 (SEQ ID NO. 81-85). In addition, the following biotinylated peptides were tested: Biotin-[…]-NH2, Biotin-[…]-NH2 (SEQ ID NO. 86-87). The amide peptides were synthesized by A&A Labs, LLC (San Diego, Calif.) and the biotinylated peptides were synthesized by GenScript (Piscataway, N.J.) both at >95% purity and reconstituted at 20 mg/ml in DMSO. In one assay design peptides were spotted at 5 μg/spot in PBS onto PVDF membranes or nitrocellulose membranes that had been prepared according to the manufacturer's instructions. The membranes were incubated with anti-IL-10Rα antibodies using standard Western blotting methods (e.g. Towbin, et al., Proc Natl Acad Sci 76:4350 (1979)). Native human IL-10Ra:hFc and heat denatured human IL-10Ra:hFc were also spotted at 1 μg/spot on the membranes as controls. Negative controls included an irrelevant peptide and isotype controls. […] None of the antibodies bound to the spotted denatured protein or to any of the peptides derived from the human IL-10Ra extracellular domain or the irrelevant peptide.

Test [7] has as its target T7, Ac-SIFSHFREYE-NH2 (human).
T7 peptide: Ac-SIFSHFREYE-NH2
In words: dot blot on PVDF or nitrocellulose membrane. As to the method: as §1

The target in test [8] is T8, human IL-10Rα extracellular domain fused to the Fc portion of human IgG1 (human).
T8 construct: also called hIL-10Rα:hFc; human IL-10Rα:hFc
In words: ELISA, coated human IL-10Rα:hFc. An excerpt:
FIGS. 2A-2B show relative binding affinity of anti-human IL-10R antibodies for human IL-10Rα. A) Titration of anti-IL-10Rα antibodies binding to coated human IL-10Rα:hFc. Binding was detected with anti-human kappa-HRP, anti-mouse IgG-HRP, or anti-rat IgG-HRP. […] RPMI-8226 cells were labeled with anti-human IL-10Rα antibodies at various concentrations and detected with anti-human IgG-PE. The commercial rat anti-human IL-10Rα antibody 3F9 was detected with anti-rat IgG-PE. The geometric mean fluorescence intensity (geo mean) data are shown.
IL-10Rα Specific Antibody Detection ELISA: Antibody titers, specificity, and production by hybridomas were determined by ELISA. In brief, 96 well flat bottom Maxisorb plates were coated with 50 μl of hIL-10Rα (R&D Systems, Minneapolis, Minn.) at 1 μg/ml in carbonate buffer (pH 9.4) overnight at 4° C. or at 37° C. for 1 hour. After washing three times with PBS/0.05% Tween 20, plates were blocked with Superblock blocking buffer in TBS (Pierce) at room temperature for 30 minutes. […] The reaction was stopped with H₂SO₄ (LabChem) and the optical density was measured at 450 nm by a microplate reader. […] In this assay, binding of specific human IgG were detected with a peroxidase labeled sheep anti-human kappa antibody (The Binding Site, Birmingham, UK).

For test [9], the target named is T5, SNP variant S159G of human IL-10Rα …. Nature of the test: ELISA, coated SNP variant Fc fusion S159G [D].
The target in test [10] is T9, Biotin-SGSTLDLYHSNGYRARVRAVDG-NH2 (human, N-terminal biotin, C-terminal amide (-NH2)).
T9 peptide: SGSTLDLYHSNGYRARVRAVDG
Nature of the test: dot blot on PVDF or nitrocellulose membrane. As for the experimental part: as §1

Test [11] addresses T10, Biotin-SGSTYSIFSHFREYEIAIRKV-NH2 (human, N-terminal biotin, C-terminal amide (-NH2)).
T10 peptide: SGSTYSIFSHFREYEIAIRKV
Nature of the test: dot blot on PVDF or nitrocellulose membrane. As to the method:
as §1

In test [12] the target is T2, SNP variant V113I of human IL-10Rα …. Nature of the test: ELISA, coated SNP variant Fc fusion V113I [C].
Test [13] addresses T1, SNP variant V233M of human IL-10Rα …. Nature of the test: ELISA, coated SNP variant Fc fusion V233M [F].

From US20110144312A1 (Kyowa Kirin, published 2011) come the findings set out here.

T4 sequence (chain, as listed by the source L61V L61V limits assumed): as the sequence (chain, as listed by the source V233M V233M limits assumed) above, with L40V, M212V counted along it
T3 sequence (chain, as listed by the source R212E R212E limits assumed): as the sequence (chain, as listed by the source V233M V233M limits assumed) above, with R191E, M212V counted along it

B1: 136C5 (antibody, V domains shown)
VH: EVQLVESGGGLVQPGGSLRLSCAASGFTFSSYSMNWVRQAPGKGLEWVSYISTGSSTIYYADSVKGRFTISRDNAKNSLYLQMNSLRDEDTAVYYCARENYYGSGSYEDYFDYWGQGTLVTVSS
VL: EIVLTQSPATLSLSPGERATLSCRASQSVSSYLAWYQQKPGQAPRLLIYDASNRATGIPARFSGSGSGTDFTLTISSLEPEDFAVYYCQQRSNWPIFTFGPGTKVDIK
notes: Hybridoma antibody, human IgG1, kappa light chain; also called human anti-human IL-10Rα monoclonal antibody 136C5; hybridoma deposit PTA-9131
Take B1: the binding result was “binds” in [1]; “binds” in test [2]; “binds” in test [3]; “binds” in test [4]; “binds” in test [5]; “no binding (tested: 5 µg/spot)” in test [6]. Further, the binding result in test [7] is recorded as “no binding (tested: 5 µg/spot)”. The “fold higher relative binding affinity than 37607” value in test [8] was roughly 3 fold.

B2: 136C8 (antibody, V domains shown)
VH: EVQLVESGGGLVQPGGSLRLSCAASGFTFSSYSMNWVRQAPGKGLEWVSYISTRSSTIYYADSVKGRFTISRDNAKNSLYLQMNSLRDEDTAVYYCARENYYGSGSYEDYFDYWGQGTLVTVSS
VL: EIVLTQSPATLSLSPGERATLSCRASQSVSSYLAWYQQKPGQAPRLLIYDASNRATGIPARFSGSGSGTDFTLTISSLEPEDFAVYYCQQRSNWPIFTFGPGTKVDIK
notes: Hybridoma antibody, human IgG2, kappa light chain; also called human anti-human IL-10Rα monoclonal antibody 136C8; hybridoma deposit PTA-9132
Take B2: the binding result in test [9] was “binds”; in [6], “no binding (tested: 5 µg/spot)”; in [10], “no binding (tested: 5 µg/spot)”; in test [11] it was “no binding (tested: 5 µg/spot)”; in test [7], “no binding (tested: 5 µg/spot)”; in test [12], “binds”. Further, the binding result in test [13] was “binds”. For the same molecule, the “fold higher relative binding affinity than 37607” value in test [8] is roughly 3 fold.
